Data published in US20160200789A1, “IL4 CONJUGATED TO ANTIBODIES AGAINST EXTRACELLULAR MATRIX COMPONENTS” (PHILOGEN S.P.A., priority 2013, published 2016).

Assays:
[1] = system: CTLL2 cells; test: CTLL2 cell proliferation bioactivity assay; type: cell-based; conditions: 24 h
Method: The biological activity of murine IL4 was determined by its ability to stimulate the proliferation of CTLL2 cells. […] After incubation at 37° C. for 24 h, cell proliferation was determined with Cell Titer Aqueous One Solution (Promega).

[2] = system: imiquimod (IMQ)-induced ear inflammation in C57BL/6 mice; test: IMQ-induced inflammation model of psoriasis; type: in vivo, mouse
Method: C57BL/6 mice (Charles River, Germany) were treated on each side of each ear with 5 mg Aldara cream (containing 0.25 mg Imiquimod). The treatment schedule is illustrated in FIG. 11A. The Aldara cream was applied every day for 5 days (on day 1, 2, 3, 4 5 and […]: each application is illustrated by an asterisk in FIG. 11A). Ear thickness was measured with a caliper before the application of the cream. […] Treatment was repeated on day 9 and 11 (each treatment event is illustrated by an arrow in FIG. 11A).

[3] = system: F9 teratocarcinoma; test: Therapy studies in F9 teratocarcinoma-bearing mice; type: in vivo, mouse
Method: In a dose finding study, F9 tumour-bearing mice were randomly grouped (n=5) and injected intravenously (i.v.) into the lateral tail vein when tumours were clearly palpable. […] The therapeutic antibodies were all dissolved in phosphate buffered saline (PBS) and this buffer was also used in the negative control treatment groups. The mice were monitored daily and tumour volume was measured with a calliper (volume=length×width^2×0.5).

[4] = system: A20 lymphoma; test: Therapy studies in A20 tumour-bearing mice; conditions: 90 μg i.v. every second day
Description: Data represent mean tumour volumes (±SEM), n=5 mice per group. […] Data represent mean tumour volumes (±SEM), n=5 mice per group.
Differences in tumor volume, % ID/g and Tumor-to-blood ratio between therapeutic groups were compared using Graphpad Prism's repeated measures (mixed model) ANOVA analysis.
For this, as well as the other experiments described below, F9 teratocarcinoma (CRL-1720; ATCC, Molsheim Cedex, France), CT26 colon carcinoma (CRL-2638; ATCC, Molsheim Cedex, France) and A20 lymphoma (TIB-208; ATCC, Molsheim Cedex, France) were grown according to the supplier's protocol and tumour cells implanted subcutaneously in the flank using 25×10^6 cells (F9), 2×10^6 cells (CT26) or 8×10^6 cells (A20). F9 teratocarcinoma cells were implanted into 129/SvEv mice (Charles River, Sulzfeld, Germany), CT26 colon carcinoma cells were implanted into Balb/c mice (Elevage Janvier, Le Genest-St-Isle, France) and A20 lymphoma cells were implanted into Balb/c mice (Elevage Janvier, Le Genest-St-Isle, France). Mice were sacrificed when tumour volumes reached a maximum of 2000 mm^3.

[5] = system: A20 lymphoma; test: Biodistribution and ex vivo immunofluorescence in A20 tumour-bearing mice; conditions: after i.v. administration
[6] = system: tumour neovascular structures in murine F9, CT26 and A20 tumours; test: Immunofluorescence on untreated tumour sections; parameters: species or system mouse; conditions: biotinylated protein on F9, CT26 and A20 tumour sections
Description: For detection streptavidin-Alexa Fluor 488 and anti-rat-Alexa Fluor 594 (Invitrogen) were used. Slides were mounted with fluorescent mounting medium (Dako) and analyzed with an Axioskop2 mot plus microscope (Zeiss).

[7] = system: F9 teratocarcinoma; test: Ex vivo immunofluorescence of treated F9 tumours; type: in vivo, mouse; conditions: ex vivo immunofluorescence after i.v. administration
Method: For ex vivo detection of the localization of the IL4-based immunocytokines and of tumour infiltrating cells after therapy, mice were injected three times with the appropriate proteins as for therapy experiments and sacrificed two days after the last injection. Tumours were excised, embedded in cryoembedding medium (Thermo Scientific) and cryostat sections (10 μm) were stained using the antibodies: Anti-IL4 antibody (eBioscience), CD45 (leukocytes, BD Biosciences), CD4 (CD4+Tcells, BioXCell), CD8 (CD8+Tcells, BioXCell), F4/80 (macrophages, Abcam), Asialo GM1 (NK cells, Wako Pure Chemical Industries), CD45R (B cells, eBioscience), Foxp3 (eBioscience), CD31 (Santa Cruz); and detected with AlexaFluor488 respectively AlexaFluor594 coupled secondary antibodies (Invitrogen). Slides were mounted with fluorescent mounting medium (Dako) and analyzed with an Axioskop2 mot plus microscope (Zeiss).

[8] = system: collagen induced arthritis in DBA/1J mice; test: Aggressive collagen induced arthritis model, F8-IL4 dose comparison (Example 3); type: in vivo
Method: Animals showing signs of joint inflammation with a total score of 1 to 3 were included in the therapy experiments. When the joint inflammation was too high at day one (more than one paw, score>3) mice were not included in the therapy experiments. Experiments were performed under a project license granted by the Veterinaeramt des Kantons Zuerich, Switzerland (208/2010).
The dose for TNFR-Fc was determined by calculations from the human ENBREL dose and the approximate local TNF concentration compared with the bioactivity of the fusion protein.

B1: F8-IL4: antibody F8 (anti-EDA of fibronectin) in diabody format fused at the C-terminus to murine interleukin 4 via 15 amino acid linker (protein)
chain: EVQLLESGGGLVQPGGSLRLSCAASGFTFSLFTMSWVRQAPGKGLEWVSAISGSGGSTYYADSVKGRFTISRDNSKNTLYLQMNSLRAEDTAVYYCAKSTHLYLFDYWGQGTLVTVSSGGSGGEIVLTQSPGTLSLSPGERATLSCRASQSVSMPFLAWYQQKPGQAPRLLIYGASSRATGIPDRFSGSGSGTDFTLTISRLEPEDFAVYYCQQMRGRPPTFGQGTKVEIKSSSSGSSSSGSSSSGHIHGCDKNHLREIIGILNEVTGEGTPCTEMDVPNVLTATKNTTESELVCRASKVLRIFYLKHGKTPCLKKNSSVLMELQRLFRAFRCLDSSISCTMNESKSTSLKDFLESLKSIMQMDYS
modifications: Synthetic sequence Amino acid sequence of F8 -(murine) IL4 of PCT/EP2014/053998
notes: antibody F8 (anti-EDA of fibronectin) in diabody format fused at the C-terminus to murine interleukin 4 via 15 amino acid linker
EC50 ([1]; CTLL2 cells, 20000 cells/well): 0.023 nM
biological cytokine activity ([1]; CTLL2 proliferation): comparable to that of recombinant murine IL4
ear thickness ([2]; 100 μg i.v. days 7, 9, 11, day 13, vs PBS or KSF-IL4): significantly reduced ear thickness
ear draining lymph nodes (weight) ([2]; day 13): smaller
decrease in ear thickness from treatment initiation (day 7) ([2]; mouse, in vivo): significantly more than in mice receiving either PBS, F8-SIP or KSF-IL4 treatment
tumour retardation in dose finding study ([3]; 90 μg compared with 45 μg, i.v. every second day): best tumour retardation results
therapeutic effect compared with KSF-IL4 ([3]; 90 μg i.v. every second day): substantially more potent
cure of F9 tumours by treatment alone ([3]; monotherapy): not cured
single-agent therapeutic activity ([3]; mouse, in vivo): potent single-agent therapeutic activity
tumour growth retardation [4]: superior tumour growth retardation compared to KSF-IL4
accumulation around tumour neo-vascular structures [5]: preferential accumulation
recognition of tumour neovascular structures [6]: able to recognize tumour neovascular structures
accumulation on CD31-positive tumour neo-vascular structures [7]: preferential accumulation
reduction in paw swelling compared with murine version of ENBREL ([8]; 100 μg vs TNFR-Fc 30 μg): at least equivalent
tolerability ([8]; 100 μg/injection): well tolerated
weight change ([8]; 100 μg/injection): lost less weight than mice receiving only the buffer vehicle (PBS)
disease-modulating effect (arthritic score) ([8]; 100 μg/injection i.v., days 1, 4 and 7): at least as potent as the murine version of Enbrel (TNFR-Fc)
paw swelling ([8]; 100 μg, vs buffer vehicle or low dose): less severe paw swelling than mice receiving only the buffer vehicle or low amounts of F8-IL4
